Laboratory results reported in paper PMC4415972.

What was measured:
[1] = target: synaptic membrane proteins in SMPL Nanodiscs (immobilised on magnetic beads); assay: ELISA; magnetic bead-based: SMPL Nanodiscs immobilised through the His tag of MSP on Dynabeads; PBS with 0.1% BSA and 25 mM imidazole; AβOs 1 h at 37°C; bound AβOs detected by NU2 antibody or through biotin (Vectastain) with colorimetric HRP substrate; nonspecific binding measured with excess ATA; Kd as Aβ monomer equivalent
[2] = target: binding sites on cultured rat hippocampal neurons; assay: immunostaining of cells or tissue; cultured rat hippocampal neurons; biotinylated STI 30 min at 37°C, then 100 nM AβOs 30 min at 37°C; AβOs detected with NU2, STI with a streptavidin conjugate; in the PIPLC experiment 100 nM fluorescent AβOs were seen directly after 1 h of 0.2 units/mL PIPLC

Row | increase in assay response relative to unfractionated AβOs [1] | percent reduction of AβO binding [2] | Substance
1 | 80% |  | biotin-labeled high MW AβOs (larger than 50 kDa) (from UniProt P05067 672-713; P05067 672-713) (peptide)
2 |  | 87% | biotinylated soybean trypsin inhibitor type II (from UniProt P01070 25-205) (natural protein)
